This note sets out measurements from article PMC12276362 (Nature Communications, 2025).

For this assay, the target named is rhAMPK protein (AMPKα2, Abiocenter Biotechnology) (human (printed only as the prefix rh), UniProt P54646 1-552). Nature of the assay: BLI.
Sequence of rhAMPK protein (AMPKα2, Abiocenter Biotechnology) (P54646 whole entry): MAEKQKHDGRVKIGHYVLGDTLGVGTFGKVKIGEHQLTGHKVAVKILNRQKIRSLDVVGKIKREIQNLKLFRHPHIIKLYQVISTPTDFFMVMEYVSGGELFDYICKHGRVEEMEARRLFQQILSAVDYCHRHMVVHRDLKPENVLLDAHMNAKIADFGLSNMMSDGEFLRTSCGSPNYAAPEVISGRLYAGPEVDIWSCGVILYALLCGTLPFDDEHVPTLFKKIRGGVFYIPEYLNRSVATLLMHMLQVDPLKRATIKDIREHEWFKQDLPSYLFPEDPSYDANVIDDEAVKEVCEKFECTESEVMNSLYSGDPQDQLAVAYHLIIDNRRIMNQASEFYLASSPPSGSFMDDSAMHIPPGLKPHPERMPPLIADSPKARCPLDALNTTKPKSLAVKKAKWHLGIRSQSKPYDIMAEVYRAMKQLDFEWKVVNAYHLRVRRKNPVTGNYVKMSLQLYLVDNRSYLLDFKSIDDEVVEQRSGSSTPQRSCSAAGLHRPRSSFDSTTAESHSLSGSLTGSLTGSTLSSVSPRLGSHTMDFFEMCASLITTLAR

B1: rhOTUD1 protein (enzyme, human (printed only as the prefix rh), UniProt Q5VV17 1-481, looked up)
chain: MQLYSSVCTHYPAGAPGPTAAAPAPPAAATPFKVSLQPPGAAGAAPEPETGECQPAAAAEHREAAAVPAAKMPAFSSCFEVVSGAAAPASAAAGPPGASCKPPLPPHYTSTAQITVRALGADRLLLHGPDPVPGAAGSAAAPRGRCLLLAPAPAAPVPPRRGSSAWLLEELLRPDCPEPAGLDATREGPDRNFRLSEHRQALAAAKHRGPAATPGSPDPGPGPWGEEHLAERGPRGWERGGDRCDAPGGDAARRPDPEAEAPPAGSIEAAPSSAAEPVIVSRSDPRDEKLALYLAEVEKQDKYLRQRNKYRFHIIPDGNCLYRAVSKTVYGDQSLHRELREQTVHYIADHLDHFSPLIEGDVGEFIIAAAQDGAWAGYPELLAMGQMLNVNIHLTTGGRLESPTVSTMIHYLGPEDSLRPSIWLSWLSNGHYDAVFDHSYPNPEYDNWCKQTQVQRKRDEELAKSMAISLSKMYIEQNACS
modifications: biotin (EZ-Link Sulfo-NHS-LC-Biotinylation Kit)
B1 showed a Kd of 55.6 nM.
